Laboratory results published in the supplement of paper PMC12042874.
± gives the uncertainty stated by the source.

Experiment: amyloid nucleation score (Sup35N fusion, yeast selection) (log enrichment); library NNK3; higher = more nucleation; inactive = no reads after selection
Procedure, shortened: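 Sup35N was fused to peptides of 20 random codons and expressed in psi-negative yeast, which were induced with 100 μM copper sulfate for 24 hours and then grown on medium lacking adenine and uracil for 7 days at 30°C. Plasmid inserts from input and output were sequenced on Illumina. The nucleation score is the DiMSum log enrichment of output over input reads, centred on the mode score of non-aggregating sequences. Sequences with under 100 input reads were left out, and random libraries had three technical output replicates.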

**Q.** With YALMLVFERHSRAARSVGMG as the substance, how does the amyloid nucleation score read?
**A.** inactive

**Q.** Which amyloid nucleation score does the source give for RLKLMRP here?
**A.** inactive

**Q.** For QGGNAISRYKWDCIR, which amyloid nucleation score is on record?
**A.** inactive

**Q.** Which amyloid nucleation score does the source give for RFWMRKY here?
**A.** inactive

**Q.** Which amyloid nucleation score does the source give for CFVYRTLISNLFSIWHSLQF here?
**A.** inactive

**Q.** Which amyloid nucleation score does the source give for YDCWFPHLSECLQLDTIFKA here?
**A.** inactive

**Q.** For LPAGVFTDSACVVVSANKAT, which amyloid nucleation score is on record?
**A.** inactive

**Q.** Which amyloid nucleation score does the source give for FLIIDAVLEPVGLLFFTKFS here?
**A.** inactive

**Q.** With RTSLGSCKYHLVFFYRVLVW as the substance, how does the amyloid nucleation score read?
**A.** inactive

**Q.** Which amyloid nucleation score does the source give for RRLPSELYMSYHYHFFFKSG here?
**A.** inactive

**Q.** With WQQAYRDRTSRSYWQPICAT as the substance, how does the amyloid nucleation score read?
**A.** inactive

**Q.** For STTGWSMYYWSIRADREVTY, which amyloid nucleation score is on record?
**A.** inactive

**Q.** Which amyloid nucleation score does the source give for INFVYSHM here?
**A.** 1.75 ± 0.12

**Q.** For TVHKVSGKDQGWMYGHMLFC, which amyloid nucleation score is on record?
**A.** inactive

**Q.** Which amyloid nucleation score does the source give for EGFWMNAPGGRISYSINWIA here?
**A.** inactive

**Q.** With MIDRRMSFRQGDHKDCPTAH as the substance, how does the amyloid nucleation score read?
**A.** inactive

**Q.** Which amyloid nucleation score does the source give for DKGLGVLRHLNRWIVCTGHD here?
**A.** inactive

**Q.** With MFDLYN as the substance, how does the amyloid nucleation score read?
**A.** inactive

**Q.** For IPRVDLLLCLDSIGLGRSLN, which amyloid nucleation score is on record?
**A.** inactive

**Q.** With YALCPVRPGSQQGKLGVTFL as the substance, how does the amyloid nucleation score read?
**A.** 0.503 ± 0.45

**Q.** For RCMPRCALACTRLSPGRSVV, which amyloid nucleation score is on record?
**A.** inactive

**Q.** Which amyloid nucleation score does the source give for PTTMVPQPRPYSLRRTLAY here?
**A.** inactive

**Q.** With VESCRKDTYNSWFFDCLGDR as the substance, how does the amyloid nucleation score read?
**A.** inactive

**Q.** With RDPASGVSMCTIIIVKGYTI as the substance, how does the amyloid nucleation score read?
**A.** 0.57 ± 0.2

**Q.** For LLLSDFVSLLESPRVLHAQW, which amyloid nucleation score is on record?
**A.** inactive

**Q.** For MRWVHSHANHPLHA, which amyloid nucleation score is on record?
**A.** inactive

**Q.** With FEVIFYSGYAYLACPRRQCH as the substance, how does the amyloid nucleation score read?
**A.** inactive

**Q.** For SGMLKLSWVVW, which amyloid nucleation score is on record?
**A.** 0.667 ± 0.22

**Q.** Which amyloid nucleation score does the source give for CQSPDALVRWGR here?
**A.** -0.087 ± 0.93

**Q.** For SWLFGLCYF, which amyloid nucleation score is on record?
**A.** 2.06 ± 0.085

**Q.** For ILVIIKNHFVFFAGR, which amyloid nucleation score is on record?
**A.** inactive

**Q.** Which amyloid nucleation score does the source give for VVLDYVSYAVIHGWEM here?
**A.** inactive

**Q.** With SFAKHHDMK as the substance, how does the amyloid nucleation score read?
**A.** inactive

**Q.** With NCICDIYILTLELSLLRRWV as the substance, how does the amyloid nucleation score read?
**A.** inactive

**Q.** Which amyloid nucleation score does the source give for LFVRVCSANYFSWEYDSRVN here?
**A.** inactive

**Q.** With CCHSITFLVNLGMRERKNKV as the substance, how does the amyloid nucleation score read?
**A.** inactive

**Q.** Which amyloid nucleation score does the source give for MLWRTDHMYY here?
**A.** inactive

**Q.** With VICLLPLT as the substance, how does the amyloid nucleation score read?
**A.** 0.099 ± 0.3

**Q.** Which amyloid nucleation score does the source give for YRYRACSSNFYVTVFGQLHV here?
**A.** 2.33 ± 0.063

**Q.** For SFLWKIMISCYMMIVFCCVS, which amyloid nucleation score is on record?
**A.** inactive

**Q.** For GSNYSWSLLL, which amyloid nucleation score is on record?
**A.** inactive

**Q.** For FSFNQWDLLKMSIGCFKRCK, which amyloid nucleation score is on record?
**A.** inactive

**Q.** For KYYFRGWKTEPVTWFGCQAM, which amyloid nucleation score is on record?
**A.** 0.488 ± 0.2

**Q.** For NLVNFYYLVRAFDCELLFRG, which amyloid nucleation score is on record?
**A.** inactive

**Q.** With WLVPR as the substance, how does the amyloid nucleation score read?
**A.** inactive

**Q.** With WFFMNVLASENKYFVLCCKA as the substance, how does the amyloid nucleation score read?
**A.** inactive

**Q.** For LSYSAGEIRCVGSCWANESL, which amyloid nucleation score is on record?
**A.** inactive

**Q.** For ATTVNGFIISHRVYNAGSWY, which amyloid nucleation score is on record?
**A.** 1.28 ± 0.1

**Q.** For RARGDTIK, which amyloid nucleation score is on record?
**A.** inactive

**Q.** With VGLFASPDRRYRMIAFVPGL as the substance, how does the amyloid nucleation score read?
**A.** inactive

**Q.** Which amyloid nucleation score does the source give for YGCWQRWSRQVGYFRGDKAC here?
**A.** inactive

**Q.** With ASFYWECMYVHGDVFLCVWY as the substance, how does the amyloid nucleation score read?
**A.** 1.79 ± 0.1

**Q.** Which amyloid nucleation score does the source give for FILSAGSLHQLGRLVES here?
**A.** inactive

**Q.** Which amyloid nucleation score does the source give for IIVVCDSDRLFLPNQPPNVI here?
**A.** inactive

**Q.** For ESMAFLRSSSLHKFVWTMYR, which amyloid nucleation score is on record?
**A.** inactive

**Q.** With VCMEMLEHIMIWFNSVDT as the substance, how does the amyloid nucleation score read?
**A.** inactive

**Q.** Which amyloid nucleation score does the source give for LFGTNQYYNY here?
**A.** inactive

**Q.** Which amyloid nucleation score does the source give for GNSNTMSVLRCFLNPFPLVW here?
**A.** inactive

**Q.** For SWGQVGYIEFFIGSSCHVS, which amyloid nucleation score is on record?
**A.** -0.378 ± 0.84

**Q.** Which amyloid nucleation score does the source give for WCFMQQFVFTLGRKFRIWRI here?
**A.** inactive

**Q.** For EWFSMIVSHFNI, which amyloid nucleation score is on record?
**A.** inactive

**Q.** With EAGSPALRR as the substance, how does the amyloid nucleation score read?
**A.** 0.078 ± 0.7

**Q.** Which amyloid nucleation score does the source give for PTGFLLPDAGWKIYTGSLDV here?
**A.** inactive

**Q.** For STVELWQELFAFNTRGGSNG, which amyloid nucleation score is on record?
**A.** inactive

**Q.** For MPVSYAG, which amyloid nucleation score is on record?
**A.** inactive
